Paper PMC2132610 (The Journal of Cell Biology, 1997)

B1: AOX with the COOH-terminal LARF replaced by RSC (AOX–RSC, pHWO41) (enzyme, P. pastoris)
chain: MAIPEEFDILVLGGGSSGSCIAGRLANLDHSLKVGLIEAGENNLNNPWVYLPGIYPRNMKLDSKTASFYTSNPSPHLNGRRAIVPCANVLGGGSSINFMMYTRGSASDYDDFQAEGWKTKDLLPLMKKTETYQRACNNPDIHGFEGPIKVSFGNYTYPVCQDFLRASESQGIPYVDDLEDLVTAHGAEHWLKWINRDTGRRSDSAHAFVHSTMRNHDNLYLICNTKVDKIIVEDGRAAAVRTVPSKPLNPKKPSHKIYRARKQIVLSCGTISSPLVLQRSGFGDPIKLRAAGVKPLVNLPGVGRNFQDHYCFFSPYRIKPQYESFDDFVRGDAEIQKRVFDQWYANGTGPLATNGIEAGVKIRPTPEELSQMDESFQEGYREYFEDKPDKPVMHYSIIAGFFGDHTKIPPGKYMTMFHFLEYPFSRGSIHITSPDPYAAPDFDPGFMNDERDMAPMVWAYKKSRETARRMDHFAGEVTSHHPLFPYSSEARALEMDLETSNAYGGPLNLSAGLAHGSWTQPLKKPTAKNEGHVTSNQVELHPDIEYDEEDDKAIENYIREHTETTWHCLGTCSIGPREGSKIVKWGGVLDHRSNVYGVKGLKVGDLSVCPDNVGCNTYTTALLIGEKTATLVGEDLGYSGEALDMTVPQFKLGTYEKTGRSC
B2: wild-type alcohol oxidase of Pichia pastoris (AOX-WT) (enzyme, P. pastoris, UniProt F2QY27 1-663, looked up)
chain: MAIPEEFDILVLGGGSSGSCIAGRLANLDHSLKVGLIEAGENNLNNPWVYLPGIYPRNMKLDSKTASFYTSNPSPHLNGRRAIVPCANVLGGGSSINFMMYTRGSASDYDDFQAEGWKTKDLLPLMKKTETYQRACNNPDIHGFEGPIKVSFGNYTYPVCQDFLRASESQGIPYVDDLEDLVTAHGAEHWLKWINRDTGRRSDSAHAFVHSTMRNHDNLYLICNTKVDKIIVEDGRAAAVRTVPSKPLNPKKPSHKIYRARKQIVLSCGTISSPLVLQRSGFGDPIKLRAAGVKPLVNLPGVGRNFQDHYCFFSPYRIKPQYESFDDFVRGDAEIQKRVFDQWYANGTGPLATNGIEAGVKIRPTPEELSQMDESFQEGYREYFEDKPDKPVMHYSIIAGFFGDHTKIPPGKYMTMFHFLEYPFSRGSIHITSPDPYAAPDFDPGFMNDERDMAPMVWAYKKSRETARRMDHFAGEVTSHHPLFPYSSEARALEMDLETSNAYGGPLNLSAGLAHGSWTQPLKKPTAKNEGHVTSNQVELHPDIEYDEEDDKAIENYIREHTETTWHCLGTCSIGPREGSKIVKWGGVLDHRSNVYGVKGLKVGDLSVCPDNVGCNTYTTALLIGEKTATLVGEDLGYSGEALDMTVPQFKLGTYEKTGLARF

Target: the molecule itself
Assay: sucrose velocity gradient sedimentation

Protein | stoichiometry N
B1 | 8
B2 | 8
